Where a chain is given by its changes, count along the chain named. Numbers in names are those of the source.
Columns and labels:
[1] = biological target: matuzumab HC_20.8.34_B + matuzumab LC (IgG4 HC backbone); experiment: LCMS, IgG4 BsAb co-expression in HEK293F
[2] = LCMS, IgG4 BsAb co-expression; HCA homodimer species
[3] = biological target: matuzumab HC_20.8.34_B + matuzumab LC (IgG4 HC backbone); experiment: LCMS, IgG4 BsAb co-expression; HCA/HCB heterodimer carrying two LC1
[4] = biological target: matuzumab HC_20.8.34_B + matuzumab LC (IgG4 HC backbone); experiment: LCMS, IgG4 BsAb co-expression; HCA/HCB heterodimer carrying two LC2
[5] = biological target: BHA10 HC_20.8_B + BHA10 LC (IgG1); experiment: LCMS, IgG1 BsAb co-expression in HEK293F
[6] = biological target: matuzumab HC_20.8_B + matuzumab LC (IgG1); experiment: LCMS, IgG1 BsAb co-expression in HEK293F
[7] = LCMS, IgG1 BsAb co-expression; HCA homodimer species
[8] = biological target: BHA10 HC_20.8_B + BHA10 LC (IgG1); experiment: LCMS, IgG1 BsAb co-expression; HCA/HCB heterodimer carrying two LC1
[9] = biological target: matuzumab HC_20.8_B + matuzumab LC (IgG1); experiment: as above
[10] = biological target: BHA10 HC_20.8_B + BHA10 LC (IgG1); experiment: LCMS, IgG1 BsAb co-expression; HCA/HCB heterodimer carrying two LC2
[11] = biological target: matuzumab HC_20.8_B + matuzumab LC (IgG1); experiment: as above
[12] = biological target: BHA10 HC_7.8.60_B + BHA10 LC (IgG4 HC backbone); experiment: LCMS, IgG4 BsAb co-expression in HEK293F
[13] = biological target: matuzumab HC_7.8.60_B + matuzumab LC (IgG4 HC backbone); experiment: LCMS, IgG4 BsAb co-expression in HEK293F
[14] = biological target: BHA10 HC_7.8.60_B + BHA10 LC (IgG4 HC backbone); experiment: LCMS, IgG4 BsAb co-expression; HCA/HCB heterodimer carrying two LC1
[15] = biological target: matuzumab HC_7.8.60_B + matuzumab LC (IgG4 HC backbone); experiment: as above
[16] = biological target: BHA10 HC_7.8.60_B + BHA10 LC (IgG4 HC backbone); experiment: LCMS, IgG4 BsAb co-expression; HCA/HCB heterodimer carrying two LC2
[17] = biological target: matuzumab HC_7.8.60_B + matuzumab LC (IgG4 HC backbone); experiment: as above
[18] = biological target: BHA10 HC_20.8.34_B + BHA10 LC (IgG4 HC backbone); experiment: LCMS, IgG4 BsAb co-expression in HEK293F
[19] = biological target: BHA10 HC_20.8.34_B + BHA10 LC (IgG4 HC backbone); experiment: LCMS, IgG4 BsAb co-expression; HCA/HCB heterodimer carrying two LC1
[20] = biological target: BHA10 HC_20.8.34_B + BHA10 LC (IgG4 HC backbone); experiment: LCMS, IgG4 BsAb co-expression; HCA/HCB heterodimer carrying two LC2
[21] = biological target: T1, HA-tagged human IgG1 Fc portion with CH3 mutations E356G, E357D, S364Q, Y407A; experiment: UPLC SEC of protein G-purified one-arm antibody co-expressed in HEK293F
T1 chain: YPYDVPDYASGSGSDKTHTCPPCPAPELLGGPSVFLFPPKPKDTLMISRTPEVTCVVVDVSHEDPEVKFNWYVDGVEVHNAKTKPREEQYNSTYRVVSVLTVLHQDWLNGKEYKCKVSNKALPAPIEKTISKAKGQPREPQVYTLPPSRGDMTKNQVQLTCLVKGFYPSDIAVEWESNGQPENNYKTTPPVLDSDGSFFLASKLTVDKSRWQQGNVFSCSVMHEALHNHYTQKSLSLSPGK

[22] = biological target: T2, HA-tagged human IgG1 Fc portion with CH3 mutations E357D, S364Q, Y407A; experiment: as above
T2 chain: T1 chain with G150E

[23] = biological target: T3, HA-tagged human IgG1 Fc portion with CH3 mutations E357D, S364R, Y407A; experiment: as above
T3 chain: T1 chain with G150E, Q158R

[24] = Pertuzumab × BHA10 IgG BsAbs (with select CH3 Designs)
[25] = Pertuzumab × Matuzumab IgG BsAbs (with select CH3 Designs)

B1: MetMAb HC_20.8.34_A + MetMAb LC (IgG4 HC backbone) (protein)
chain 1: EVQLVESGGGLVQPGGSLRLSCAASGYTFTSYWLHWVRKAPGKGLEWVGMIDPSNSDTRFNPEFKDRFTISADTSKNTAYLQMNSLRAEDTAVYYCATYRSYVTPLDYWGQGTLVTVSSASTKGPSVFPLAPCSRSTSESTAALGCLVKDYFPEPVTVSWNSGALTSGVATGPAVLQSSGLYSLSSVVTVPSSSLGTKTYTCNVDHKPSNTKVDKRVESKYGPPCPPCPAPEAAGGPSVFLFPPKPKDTLMISRTPEVTCVVVDVSQEDPEVQFNWYVDGVEVHNAKTKPREEQFQSTYRVVSVLTVLHQDWLNGKEYKCKVSNKGLPSSIEKTISKAKGQPREPQVSTLPPSQEEMTKNQVSLMCLVYGFYPSDIAVEWESNGQPENNYKTTPPVLDSDGSFFLYSVLTVDKSRWQEGNVFSCSVMHEALHNHYTQKSLSLSLG
chain 2: RIQMTQSPSSLSASVGDRVTITCKSSQSLLYTSSQKNYLAWYQDKPGKAPKLLIYWASTRESGVPSRFSGSGSGTDFTLTISSLQPEDFATYYCQQYYAYPWTFGQGTKVEIKGQPKAAPSVTLFPPSSEELQANKATLVCYISDFYPGAVTVAWKADSSPVKAGVETTTPSKQSNNKYAAWSYLSLTPEQWKSHRSYSCQVTHEGSTVEKTVAPTEC
In the case of B1, the % AB (LC1/LC2) (correct IgG BsAb assembly) [1] is reported as 100%, the % AA Homodimer (incorrect assembly) [2] is reported as 0% and the % AB (2x LC1) (incorrect assembly) [3] is reported as 0%. It also gave a % AB (2x LC2) (incorrect assembly) [4] of 0%.

B2: pertuzumab HC_20.8_A + pertuzumab LC (IgG1) (protein)
chain 1: EVQLVESGGGLVQPGGSLRLSCAASGFTFTDYTMDWVRKAPGKGLEWVADVNPNSGGSIYNQEFKGRFTLSVDRSKNTLYLQMNSLRAEDTAVYYCARNLGPSFYFDYWGQGTLVTVSSASTKGPSVFPLAPSSKSTSGGTAALGCLVKDYFPEPVTVSWNSGALTSGVATGPAVLQSSGLYSLSSVVTVPSSSLGTQTYICNVNHKPSNTKVDKKVEPKSCDKTHTCPPCPAPELLGGPSVFLFPPKPKDTLMISRTPEVTCVVVDVSHEDPEVKFNWYVDGVEVHNAKTKPREEQYQSTYRVVSVLTVLHQDWLNGKEYKCKVSNKALPAPIEKTISKAKGQPREPQVSTLPPSREEMTKNQVSLVCLVYGFYPSDIAVEWESNGQPENNYKTTPPVLDSDGSFFLYSVLTVDKSRWQQGNVFSCSVMHEALHNHYTQKSLSLSPGK
chain 2: RIQMTQSPSSLSASVGDRVTITCKASQDVSIGVAWYQDKPGKAPKLLIYSASYRYTGVPSRFSGSGSGTDFTLTISSLQPEDFATYYCQQYYIYPYTFGQGTKVEIKGQPKAAPSVTLFPPSSEELQANKATLVCYISDFYPGAVTVAWKADSSPVKAGVETTTPSKQSNNKYAAWSYLSLTPEQWKSHRSYSCQVTHEGSTVEKTVAPTEC
In the case of B2, the % AB (LC1/LC2) (correct IgG BsAb assembly) [5] is reported as 96.5%, the % AB (LC1/LC2) (correct IgG BsAb assembly) [6] is reported as 96% and the % AA Homodimer (incorrect assembly) ([7]; pertuzumab × BHA10 bispecific) is reported as 3.5%. For the same protein, the % AA Homodimer (incorrect assembly) ([7]; pertuzumab × matuzumab bispecific) was 2.1%, the % AB (2x LC1) (incorrect assembly) [8] was 0% and the % AB (2x LC1) (incorrect assembly) [9] was 0%. For the same protein, the % AB (2x LC2) (incorrect assembly) [10] was 0% and the % AB (2x LC2) (incorrect assembly) [11] was 0%.

B3: pertuzumab HC_7.8.60_A + pertuzumab LC (IgG4 HC backbone) (protein)
chain 1: EVQLVESGGGLVQPGGSLRLSCAASGFTFTDYTMDWVRKAPGKGLEWVADVNPNSGGSIYNQEFKGRFTLSVDRSKNTLYLQMNSLRAEDTAVYYCARNLGPSFYFDYWGQGTLVTVSSASTKGPSVFPLAPCSRSTSESTAALGCLVKDYFPEPVTVSWNSGALTSGVATGPAVLQSSGLYSLSSVVTVPSSSLGTKTYTCNVDHKPSNTKVDKRVESKYGPPCPPCPAPEAAGGPSVFLFPPKPKDTLMISRTPEVTCVVVDVSQEDPEVQFNWYVDGVEVHNAKTKPREEQFQSTYRVVSVLTVLHQDWLNGKEYKCKVSNKGLPSSIEKTISKAKGQPREPQVYTLPPSQEEMTDNQVSLTCLVKGFYPSDIAVEWESNGQPENNYKTTPPVLMSDGSFFLASRLTVDKSRWQEGNVFSCSVMHEALHNHYTQKSLSLSLG
chain 2: B2 chain 2
Protein B3 has a % AB (LC1/LC2) (correct IgG BsAb assembly) [12] of 95.8%, a % AB (LC1/LC2) (correct IgG BsAb assembly) [13] of 90.9% and a % AA Homodimer (incorrect assembly) [2, 24] of 0%. The % AA Homodimer (incorrect assembly) [2, 25] was 9.1%, the % AB (2x LC1) (incorrect assembly) [14] was 0% and the % AB (2x LC1) (incorrect assembly) [15] was 0%. For the same protein, the % AB (2x LC2) (incorrect assembly) [16] was 0% and the % AB (2x LC2) (incorrect assembly) [17] was 0%.

B4: pertuzumab HC_20.8.34_A + pertuzumab LC (IgG4 HC backbone) (protein)
chain 1: B3 chain 1 with Y348S, D359K, T365M, K369Y, M398D, A406Y, R408V
chain 2: B2 chain 2
Work on B4 yielded a % AB (LC1/LC2) (correct IgG BsAb assembly) [18] of 94.8%, a % AB (LC1/LC2) (correct IgG BsAb assembly) [1] of 94.1% and a % AA Homodimer (incorrect assembly) [2, 24] of 5.2%. For the same protein, the % AA Homodimer (incorrect assembly) [2, 25] was 2.3%, the % AB (2x LC1) (incorrect assembly) [19] was 0% and the % AB (2x LC1) (incorrect assembly) [3] was 0%. The % AB (2x LC2) (incorrect assembly) [20] was 0% and the % AB (2x LC2) (incorrect assembly) [4] was 0%.

B5: anti-c-Met 5D5 VH-human IgG1 HC with CH3 mutations Y349S, K370Y, T366V, K409V, with 5D5 light chain (protein)
chain 1: EVQLVESGGGLVQPGGSLRLSCAASGYTFTSYWLHWVRQAPGKGLEWVGMIDPSNSDTRFNPNFKDRFTISADTSKNTAYLQMNSLRAEDTAVYYCATYRSYVTPLDYWGQGTLVTVSSASTKGPSVFPLAPSSKSTSGGTAALGCLVKDYFPEPVTVSWNSGALTSGVHTFPAVLQSSGLYSLSSVVTVPSSSLGTQTYICNVNHKPSNTKVDKRVEPKSCDKTHTCPPCPAPELLGGPSVFLFPPKPKDTLMISRTPEVTCVVVDVSHEDPEVKFNWYVDGVEVHNAKTKPREEQYNSTYRVVSVLTVLHQDWLNGKEYKCKVSNKALPAPIEKTISKAKGQPREPQVSTLPPSREEMTKNQVSLVCLVYGFYPSDIAVEWESNGQPENNYKTTPPVLDSDGSFFLYSVLTVDKSRWQQGNVFSCSVMHEALHNHYTQKSLSLSPGK
chain 2: DIQMTQSPSSLSASVGDRVTITCKSSQSLLYTSSQKNYLAWYQQKPGKAPKLLIYWASTRESGVPSRFSGSGSGTDFTLTISSLQPEDFATYYCQQYYAYPWTFGQGTKVEIKRTVAAPSVFIFPPSDEQLKSGTASVVCLLNNFYPREAKVQWKVDNALQSGNSQESVTEQDSKDSTYSLSSTLTLSKADYEKHKVYACEVTHQGLSSPVTKSFNRGEC
Protein B5 has a % heterodimer (UPLC) [21] of 93%, a % heterodimer (UPLC) [22] of 84.9% and a % heterodimer (UPLC) [23] of 86.5%.

B6: anti-c-Met 5D5 VH-human IgG1 HC with CH3 mutations Y349S, K370Y, T366M, K409V, with 5D5 light chain (protein)
chain 1: B5 chain 1 with V368M
chain 2: B5 chain 2
In the case of B6, the % heterodimer (UPLC) [21] is reported as 83.8%, the % heterodimer (UPLC) [22] is reported as 86% and the % heterodimer (UPLC) [23] is reported as 83.5%.
